Experimental data as given in publication PMC8442553 (Science (New York, N.Y.), 2019).

T1: Rsc7 (yeast, UniProt P32832 1-435)
T1 sequence: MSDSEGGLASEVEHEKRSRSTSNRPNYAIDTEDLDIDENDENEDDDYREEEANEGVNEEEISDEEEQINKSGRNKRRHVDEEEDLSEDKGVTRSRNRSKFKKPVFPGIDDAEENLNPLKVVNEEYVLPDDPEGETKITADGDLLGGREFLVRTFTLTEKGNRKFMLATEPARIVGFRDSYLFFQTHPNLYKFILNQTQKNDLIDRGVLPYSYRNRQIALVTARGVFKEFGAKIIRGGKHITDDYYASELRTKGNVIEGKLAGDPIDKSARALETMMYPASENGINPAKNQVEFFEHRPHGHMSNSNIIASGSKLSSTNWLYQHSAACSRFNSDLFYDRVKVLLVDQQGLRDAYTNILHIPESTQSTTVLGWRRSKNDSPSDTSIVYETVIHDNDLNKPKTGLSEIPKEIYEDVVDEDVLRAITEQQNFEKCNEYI

T2: Rsc9 (yeast, UniProt Q03124 1-581)
T2 sequence: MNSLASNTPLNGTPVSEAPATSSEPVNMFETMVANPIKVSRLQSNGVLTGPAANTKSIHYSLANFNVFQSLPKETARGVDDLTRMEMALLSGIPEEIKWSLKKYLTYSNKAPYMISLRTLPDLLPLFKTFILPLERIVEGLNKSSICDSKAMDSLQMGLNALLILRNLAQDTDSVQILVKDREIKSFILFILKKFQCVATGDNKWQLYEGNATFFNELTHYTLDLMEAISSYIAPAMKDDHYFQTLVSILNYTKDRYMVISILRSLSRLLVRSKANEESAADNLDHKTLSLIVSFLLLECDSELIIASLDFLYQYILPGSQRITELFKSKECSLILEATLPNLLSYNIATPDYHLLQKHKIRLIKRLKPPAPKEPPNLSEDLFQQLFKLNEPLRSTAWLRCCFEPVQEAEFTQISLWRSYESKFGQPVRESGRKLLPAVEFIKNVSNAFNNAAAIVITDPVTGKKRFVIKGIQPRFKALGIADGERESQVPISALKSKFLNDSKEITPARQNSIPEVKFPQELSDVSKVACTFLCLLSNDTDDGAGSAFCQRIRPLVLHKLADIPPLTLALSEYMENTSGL

T3: Rsc58 (yeast, UniProt Q07979 1-502)
T3 sequence: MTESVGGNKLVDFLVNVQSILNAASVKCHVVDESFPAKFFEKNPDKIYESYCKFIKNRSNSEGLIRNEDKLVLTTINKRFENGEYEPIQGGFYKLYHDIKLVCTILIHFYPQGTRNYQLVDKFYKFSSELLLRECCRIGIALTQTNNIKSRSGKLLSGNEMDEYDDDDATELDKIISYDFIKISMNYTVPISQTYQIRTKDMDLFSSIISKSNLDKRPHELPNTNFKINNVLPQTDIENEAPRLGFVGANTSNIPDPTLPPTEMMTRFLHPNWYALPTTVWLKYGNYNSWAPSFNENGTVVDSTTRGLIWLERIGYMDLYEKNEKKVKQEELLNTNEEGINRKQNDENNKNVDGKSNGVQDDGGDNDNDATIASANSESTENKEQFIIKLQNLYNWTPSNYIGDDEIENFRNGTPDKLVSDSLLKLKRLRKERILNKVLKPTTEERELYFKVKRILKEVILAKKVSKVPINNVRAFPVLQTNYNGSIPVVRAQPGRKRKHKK

T4: Sth1 (yeast, UniProt P32597 1-1359)
T4 sequence: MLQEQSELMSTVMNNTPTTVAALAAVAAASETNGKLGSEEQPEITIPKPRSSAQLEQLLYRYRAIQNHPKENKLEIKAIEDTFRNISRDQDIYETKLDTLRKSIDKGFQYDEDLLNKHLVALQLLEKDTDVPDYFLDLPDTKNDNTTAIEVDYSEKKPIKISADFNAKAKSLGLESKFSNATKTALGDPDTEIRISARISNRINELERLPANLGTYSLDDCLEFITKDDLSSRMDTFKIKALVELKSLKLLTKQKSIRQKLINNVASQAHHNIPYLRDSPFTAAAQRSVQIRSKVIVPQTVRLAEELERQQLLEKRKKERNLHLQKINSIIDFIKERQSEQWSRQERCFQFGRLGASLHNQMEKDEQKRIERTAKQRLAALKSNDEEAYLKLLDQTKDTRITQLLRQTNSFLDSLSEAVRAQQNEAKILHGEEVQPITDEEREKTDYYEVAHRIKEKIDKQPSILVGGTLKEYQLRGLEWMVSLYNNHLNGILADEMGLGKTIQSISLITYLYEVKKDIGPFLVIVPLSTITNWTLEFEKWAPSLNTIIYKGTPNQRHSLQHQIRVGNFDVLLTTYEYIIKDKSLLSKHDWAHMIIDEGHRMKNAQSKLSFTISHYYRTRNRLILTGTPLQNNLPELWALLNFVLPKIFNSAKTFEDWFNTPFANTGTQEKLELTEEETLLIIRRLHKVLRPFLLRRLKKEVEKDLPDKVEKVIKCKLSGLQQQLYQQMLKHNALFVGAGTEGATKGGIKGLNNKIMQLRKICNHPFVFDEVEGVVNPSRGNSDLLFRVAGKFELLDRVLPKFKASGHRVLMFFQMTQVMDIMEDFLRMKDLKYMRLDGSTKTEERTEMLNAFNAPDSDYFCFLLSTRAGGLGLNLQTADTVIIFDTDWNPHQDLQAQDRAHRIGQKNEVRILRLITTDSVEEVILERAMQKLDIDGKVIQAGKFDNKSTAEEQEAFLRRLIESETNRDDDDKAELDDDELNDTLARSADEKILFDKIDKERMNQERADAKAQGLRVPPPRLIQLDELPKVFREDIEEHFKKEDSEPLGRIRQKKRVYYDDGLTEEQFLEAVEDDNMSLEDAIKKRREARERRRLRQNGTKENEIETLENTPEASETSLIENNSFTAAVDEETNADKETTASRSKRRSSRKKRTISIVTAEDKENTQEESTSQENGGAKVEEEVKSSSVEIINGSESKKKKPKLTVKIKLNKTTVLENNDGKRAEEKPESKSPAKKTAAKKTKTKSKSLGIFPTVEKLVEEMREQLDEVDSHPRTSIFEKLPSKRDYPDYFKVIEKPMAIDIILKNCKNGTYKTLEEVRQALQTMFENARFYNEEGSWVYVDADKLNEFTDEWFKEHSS

B1: Sfh1 (natural protein, yeast)
chain: MSHQNQLIPQAYISNFHNRLTNEDDGIPIFTMAQQTRQHKRAKVVNYAEYDNDLFDEFNMNGSNFNNADTHYKDNAVSHENTPALTNGVTMDGSEYNVLENMNGADSIISNNKYDAGSNMVVESLSGLNSNNNASNGPSNKAQAQDIGNAVLPDLQDQHHNPFNILRYPKIRDTFINGKVVSPYRLNTDQETKANANSGEAIMIPITLDIEHMGHTIKDQFLWNYNDDSISPEEFASIYCKDLDMTSATLQTQIANIIKEQLKDLENIAATEIMSDLHVIINLTCNLQDRFFEDNFQWNLNDKSLTPERFATSIVQDLGLTREFIPLISQSLHETILKIKKDWVDGHLIQDHVPNDAAFGYLSGIRLDIDELGSNWCPRVEILTKEEIQKREIEKERNLRRLKRETDRLSRRGRRRLDDLETTMRM
B2: Rsc6 (natural protein, yeast)
chain: MVTQTNPVPVTYPTDAYIPTYLPDDKVSNLADLKKLIEMDSRLDLYLTRRRLDTSINLPTNTKTKDHPPNKEMLRIYVYNTTESSPRSDSGTPADSGKTTWTLRIEGKLLHESANGKHPFSEFLEGVAVDFKRLKPLGMGKKRKRDSSLSLPLNLQQPEYNDQDSTMGDNDNGEDEDSAEAESREEIVDALEWNYDENNVVEFDGIDIKRQGKDNLRCSITIQLRGVDGGKVQYSPNLATLIGMQTGSVNDAVYSIYKYILINNLFVTEQTEAQDGSNDAEDSSNENNNKNGAGDDDGVEGSTPKDKPELGEVKLDSLLQKVLDTNAAHLPLMNVVQTVNKLVSPLPPIILDYTIDLSKDTTYGATTLDVDVSHILHQPQPQPNLQKEEETDAEDTAKLREITKLALQLNSSAQKYQFFHELSLHPRETLTHYLWSSKQNELVLQGDQYFNEDAARTSDIYSNNNNDRSLMGNISLLYSQGRL
B3: Rsc8 (natural protein, yeast)
chain: MSDTEKDKDVPMVDSHEATEEPPTTSTNTPSFPHLAQEQAKEESATLGAEVAHKKINYEQEAQKLEEKALRFLAKQTHPVIIPSFASWFDISKIHEIEKRSNPDFFNDSSRFKTPKAYKDTRNFIINTYRLSPYEYLTITAVRRNVAMDVASIVKIHAFLEKWGLINYQIDPRTKPSLIGPSFTGHFQVVLDTPQGLKPFLPENVIKQEVEGGDGAEPQVKKEFPVNLTIKKNVYDSAQDFNALQDESRNSRQIHKVYICHTCGNESINVRYHNLRARDTNLCSRCFQEGHFGANFQSSDFIRLENNGNSVKKNWSDQEMLLLLEGIEMYEDQWEKIADHVGGHKRVEDCIEKFLSLPIEDNYIREVVGSTLNGKGGDSRDGSVSGSKLMECVNDAVQTLLQGDDKLGKVSDKSREISEKYIEESQAIIQELVKLTMEKLESKFTKLCDLETQLEMEKLKYVKESEKMLNDRLSLSKQILDLNKSLEELNVSKKLVLISEQVDSGIQLVEKDQEGDDEDGNTATGHGVKRVGKEGEEVGEGDSIAKLQPQVYKPWSL

Tests used:
Experiment in all cases: cryo-EM structure
[1] = molecular target: T1, Rsc7
[2] = molecular target: T2, Rsc9
[3] = molecular target: B3
[4] = molecular target: T3, Rsc58
[5] = molecular target: T4, Sth1
[6] = molecular target: the molecule itself

Binder: B1
- binding result [1]: binds

Binder: B2
- binding result [2]: binds
- binding result [3]: binds
- binding result [4]: binds

Binder: B3
- binding result [5]: binds
- binding result [6]: binds
